Laboratory results published in article doi:10.1101/2025.08.17.670156 (bioRxiv, 2025).

Target: the molecule itself
Test: deep-blue autofluorescence of amyloid fibrils

Protein	binding result
double plant homeodomain fingers 3a (DPF3 isoform a), wild type (natural protein, human, UniProt Q92784-2 1-357, looked up) MATVIHNPLKALGDQFYKEAIEHCRSYNSRLCAERSVRLPFLDSQTGVAQNNCYIWMEKRHRGPGLAPGQLYTYPARCWRKKRRLHPPEDPKLRLLEIKPEVELPLKKDGFTSESTTLEALLRGEGVEKKVDAREEESIQEIQRVLENDENVEEGNEEEDLEEDIPKRKNRTRGRARGSAGGRRRHDAASQEDHDKPYVCDICGKRYKNRPGLSYHYAHTHLASEEGDEAQDQETRSPPNHRNENHRPQKGPDGTVIPNNYCDFCLGGSNMNKKSGRPEELVSCADCGRSAHLGGEGRKEKEAAAAARTTEDLFGSTSESDTSTFHGFDEDDLEEPRSCRGRRSGRGSPTADKKGSC	binds
DPF3a phosphomimetic S138E (natural protein, human, UniProt Q92784-2 1-357, looked up) MATVIHNPLKALGDQFYKEAIEHCRSYNSRLCAERSVRLPFLDSQTGVAQNNCYIWMEKRHRGPGLAPGQLYTYPARCWRKKRRLHPPEDPKLRLLEIKPEVELPLKKDGFTSESTTLEALLRGEGVEKKVDAREEEEIQEIQRVLENDENVEEGNEEEDLEEDIPKRKNRTRGRARGSAGGRRRHDAASQEDHDKPYVCDICGKRYKNRPGLSYHYAHTHLASEEGDEAQDQETRSPPNHRNENHRPQKGPDGTVIPNNYCDFCLGGSNMNKKSGRPEELVSCADCGRSAHLGGEGRKEKEAAAAARTTEDLFGSTSESDTSTFHGFDEDDLEEPRSCRGRRSGRGSPTADKKGSC	binds
DPF3a phosphomimetic S348E (natural protein, human, UniProt Q92784-2 1-357, looked up) MATVIHNPLKALGDQFYKEAIEHCRSYNSRLCAERSVRLPFLDSQTGVAQNNCYIWMEKRHRGPGLAPGQLYTYPARCWRKKRRLHPPEDPKLRLLEIKPEVELPLKKDGFTSESTTLEALLRGEGVEKKVDAREEESIQEIQRVLENDENVEEGNEEEDLEEDIPKRKNRTRGRARGSAGGRRRHDAASQEDHDKPYVCDICGKRYKNRPGLSYHYAHTHLASEEGDEAQDQETRSPPNHRNENHRPQKGPDGTVIPNNYCDFCLGGSNMNKKSGRPEELVSCADCGRSAHLGGEGRKEKEAAAAARTTEDLFGSTSESDTSTFHGFDEDDLEEPRSCRGRRSGRGEPTADKKGSC	binds
